Biological target: the molecule itself
Assay: cryo-EM structure; GgCx26 in 0.03% DDM, 90 mmHg PCO2 aCSF buffer gassed with 15% CO2 to pH ~7.4, 3.4 mg/ml; reconstructions with D6 and C6 symmetry

B1: chicken connexin 26 (GgCx26) gap junction channel (natural protein)
chain: not shown
notes: DNA encoding GgCx26 lacking a stop codon was amplified from a GgCx26-mCherry construct, forward primer at the start ATG; in the model residues before Val9, 106-124 and after Leu215 are not built; Dodecameric gap junction channel (two docked hexamers); thrombin-cleavable C-terminal His6 tag removed with thrombin before SEC; also called chicken Cx26; Chicken (Gallus gallus) Cx26; source: Sf9 cells …
  stoichiometry N: 12 subunits
